Measured values published in patent publication US20250340608A1 (PROTAGONIST THERAPEUTICS, published 2025).
Numbered stars: 1 amine (or outer) side, 2 acyl side, 3 side chain; on linkers, the order of the positions; unused ones are H or OH. Bridge positions count the residues as written; N and C are the ends. Square brackets hold non-standard residues; d marks the D form. Primed or numbered codes have the meaning given here. Side chains are listed from the residue outwards. Ends that are not written are not given here. * marks the point of attachment. Ida = iminodiacetic acid, O=C(CN(CC(=O)[*:3])[*:1])[*:2]; PEG8″ = PEG8 spacer conjugated to the Lys side chain; PEG8′ = PEG8 conjugated to the Lys side chain; Dip = N[C@H](C(=O)O)C(c1ccccc1)c1ccccc1; Cyclohexanecarbonyl = O=C(C1CCCCC1)*; Palmitoyl = CCCCCCCCCCCCCCCC(=O)*; Me3Gly = C[N+](C)(C)CC(=O)*; β3hP = O=C(O)C[C@@H]1CCCN1; Isovaleryl = CC(C)CC(=O)*; PEG2′ = not defined here; PEG3′ = not defined here; PEG4′ = not defined here

molecular target: T1, human ferroportin (SLC40A1) fused in frame with GFP, stably expressed in HEK293 cells (human, UniProt Q9NP59 1-571); assay: cell-based or functional assay
T1 sequence (looked up): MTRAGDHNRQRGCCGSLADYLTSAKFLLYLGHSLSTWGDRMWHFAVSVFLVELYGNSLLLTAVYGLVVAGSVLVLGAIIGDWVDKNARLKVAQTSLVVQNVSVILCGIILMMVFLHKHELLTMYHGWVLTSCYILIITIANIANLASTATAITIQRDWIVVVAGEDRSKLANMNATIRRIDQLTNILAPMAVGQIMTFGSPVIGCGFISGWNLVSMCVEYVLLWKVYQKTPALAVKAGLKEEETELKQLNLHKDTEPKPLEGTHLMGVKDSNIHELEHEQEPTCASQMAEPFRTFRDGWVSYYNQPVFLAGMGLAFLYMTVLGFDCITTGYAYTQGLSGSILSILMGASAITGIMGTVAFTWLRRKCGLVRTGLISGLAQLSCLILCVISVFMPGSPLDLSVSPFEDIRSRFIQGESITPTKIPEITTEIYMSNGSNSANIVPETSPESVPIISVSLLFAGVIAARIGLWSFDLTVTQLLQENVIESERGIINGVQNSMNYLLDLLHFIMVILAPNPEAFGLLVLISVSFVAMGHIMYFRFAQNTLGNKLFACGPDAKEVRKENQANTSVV

Binder | Potency EC50 [nM] | Potency EC50 (nM)
Isovaleryl-DTHFPCIIFGPRSRGWVCK(PEG2′)-NH2 (not fully specified (bridges); cysteine pairing not given here) [Compound 180] | 9 | 
Isovaleryl-DTHFPCIKFGPRSKGWVCK([PEG3′-Palmitoyl])-NH2 (cysteine pairing not given here) [Compound 203] | 4 | 
Isovaleryl-DTHFPCIK([PEG3′-Palmitoyl])FGPRSKGWVCK-NH2 (cysteine pairing not given here) [Compound 199] | 7 | 
Palmitoyl-DTHFPCIKFGPRSKGWVCK-NH2 (cysteine pairing not given here) [Compound 216] |  | > 1000
{Isovaleryl-PEG3′}-DTHFPCIKFGPRSKGWVCK-NH2 (cysteine pairing not given here) [Compound 161] | 666 | 
[Ida]TH[Dip][β3hP]ICIFGPRSKGWVCM-NH2 (disulfide 7-18 (inferred)) [Compound 5] | 17 | 
Isovaleryl-DTHFPCIKFGPRSKGWTCK-NH2 (cysteine pairing not given here) [Compound 154] | 18 | 
{Palmitoyl-PEG3′}-DTHFPCIKFGPRSKGWVCK-NH2 (cysteine pairing not given here) [Compound 217] |  | > 1000
H-DTHFPCIKFGPRSK([PEG3′-Isovaleryl])GWVCK-NH2 (cysteine pairing not given here) [Compound 212] | > 300 | 
H-DTHFPCIKFGPRSKGWVCK-NH2 (cysteine pairing not given here) [Compound 215] |  | > 1000
Isovaleryl-DTHFPCIIFGPRSRGWVCK(PEG4′)-NH2 (not fully specified (bridges); cysteine pairing not given here) [Compound 179] | 4 | 
Isovaleryl-DTHFPICIFGPRSK(PEG8″)GWVC-NH2 (not fully specified (bridges); cysteine pairing not given here) [Compound 176] | 6 | 
H-DTHFPCIKFGPRSKGWVCK([PEG3′-Isovaleryl])-NH2 (cysteine pairing not given here) [Compound 213] | 233 | 
H-VDTHFPCIKFGPRSKGWVCK-NH2 (cysteine pairing not given here) [Compound 164] | 146 | 
Isovaleryl-DTHFPCIKFEPRSKGWCK-NH2 (not fully specified (bridges); cysteine pairing not given here) [Compound 183] | 17 | 
Isovaleryl-DTHFPCIKFGPK([PEG3′-Palmitoyl])SKGWVCK-NH2 (cysteine pairing not given here) [Compound 201] | 4 | 
H-DTHFPCIKFGPK([PEG3′-Isovaleryl])SKGWVCK-NH2 (cysteine pairing not given here) [Compound 211] | > 300 | 
DTHFPCIKFKPRSKGWVCK (N-terminal isovaleric acid; PEG3-Palm on side chain of Lys 10; C-terminal amide) [Compound 200] | 6 | 
Isovaleryl-DTHFPICIFGPRSK(PEG4′)GWVC-NH2 (not fully specified (bridges); cysteine pairing not given here) [Compound 177] | 6 | 

Binder | Potency EC50 [nM] | Potency EC50 (nM)
Isovaleryl-DTHFPCIKFGPRSK([PEG3′-Palmitoyl])GWVCK-NH2 (cysteine pairing not given here) [Compound 202] | 3 | 
Isovaleryl-DTHFPCIIFGPRSKGWECK-NH2 (not fully specified (bridges); cysteine pairing not given here) [Compound 172] | 15 | 
Isovaleryl-DTHFPICIFGPRSKGWVC-NH2 (not fully specified (bridges); cysteine pairing not given here) [Compound 2] | 5 | 
DTHFPCIKFKPRSKGWVCK (PEG3-IVA on side chain of Lys 10; C-terminal amide) [Compound 210] | 457 | 
Isovaleryl-DTHFPCIKFGPRSKGWVCK(PEG8′)-NH2 (cysteine pairing not given here) [Compound 153] | 18 | 
Isovaleryl-DTHFPCIK(Palmitoyl)FGPRSKGWVCK-NH2 (cysteine pairing not given here) [Compound 194] | 4 | 
H-DTHFPICIFGPRAKGWVCM-NH2 (cysteine pairing not given here) [Compound 16] | 88 | 
Isovaleryl-DTHFPCIKFEPRSKGWVCK-NH2 (not fully specified (bridges); cysteine pairing not given here) [Compound 181] | 15 | 
Isovaleryl-DTHFPCIKFGPRSK(Me3Gly)GWVCK-NH2 (cysteine pairing not given here) [Compound 157] | 18 | 
Isovaleryl-DTHFPCIKFC-NH2 (cysteine pairing not given here) [Compound 193] | 80 | 
Isovaleryl-DTHFPCIKFEPRSKKWVCK-NH2 (not fully specified (bridges); cysteine pairing not given here) [Compound 214] | 15 | 
Isovaleryl-DTHFPCIKFGPRSKGWVCK(Me3Gly)-NH2 (cysteine pairing not given here) [Compound 159] | 17 | 
DTHFPCIKFKPRSKGWVCK (not fully specified; IVA on side chain of Lys 10; C-terminal amide) [Compound 205] | > 300 | 
Isovaleryl-DTHFPCIIFGPRSRGWVCK(PEG8″)-NH2 (not fully specified (bridges); cysteine pairing not given here) [Compound 178] | 3 | 
Cyclohexanecarbonyl-DTHFPCIKFGPRSKGWVCK-NH2 (not fully specified (bridges); cysteine pairing not given here) [Compound 168] | 30 | 
Isovaleryl-DTHFPCIKFGPRSCK-NH2 (cysteine pairing not given here) [Compound 188] | 30 | 
H-DTHFPCIK([PEG3′-Isovaleryl])FGPRSKGWVCK-NH2 (cysteine pairing not given here) [Compound 209] | 342 | 
H-DTHFPCIK(Isovaleryl)FGPRSKGWVCK-NH2 (cysteine pairing not given here) [Compound 204] | > 300 | 
Isovaleryl-DTHFPCIIFGPRSKGWVCK-NH2 (not fully specified (bridges); cysteine pairing not given here) [Compound 11] | 9 | 
